The record followed here is publication PMC4365169 (Nature Communications, 2014).

The assay addresses actin filaments (F-actin, rabbit skeletal muscle) (rabbit, UniProt P68135 1-377). Description: co-sedimentation.

B1: GFP–TipAct (other)
chain: DERDRVQKKTFTKWVNKHLMKVRKHINDLYEDLRDGHNLISLLEVLSGIKLPREKGRMRFHRLQNVQIALDFLKQRQVKLVNIRNDDITDGNPKLTLGLIWTIILHFQISDIYISGESGDMSAKEKLLLWTQKVTAGYTGIKCTNFSSCWSDGKMFNALIHRYRPDLVDMERVQIQSNRENLEQAFEVAERLGVTRLLDAEDVDVPSPDEKSVITYVSSIYDAFPKVPEGGEGEMANRLAGLENSLESEKVSREQLIKQKDQLNSLLASLESEGAEREKRLRELEAKLDETLKNLELEKLARMELEARLAKTEKDRAILELKLAEAIDEKSKLEESSAAGGQGNSRRGLNKPSKIPTMSKKTTTASPRTPGPKR
Consider B1, for which the dissociation constant (Kd) (usually the concentration at which binding is half-saturated) was roughly 5 µM.
